Data reported in the supplement of paper PMC11908140.

B1: library; numbered along this chain (parent)
chain: MRKPRAAVGSGHRKQAASQEGRQKHAKNNSQAKPSACDGLARQPEEVVLQASVSSYHLFRDVAEVTAFRGSLLSWYDQEKRDLPWRRRAEDEMDLDRRAYAVWVSEVMLQQTQVATVINYYTGWMQKWPTLQDLASASLEEVNQLWAGLGYYSRGRRLQEGARKVVEELGGHMPRTAETLQQLLPGVGRYTAGAIASIAFGQATGVVDGNVARVLCRVRAIGADPSSTLVSQQLWGLAQQLVDPARPGDFNQAAMELGATVCTPQRPLCSQCPVESLCRARQRVEQEQLLASGSLSGSPDVEECAPNTGQCHLCLPPSEPWDQTLGVVNFPRKASRKPPREESSATCVLEQPGALGAQILLVQRPNSGLLAGLWEFPSVTWEPSEQLQRKALLQELQRWAGPLPATHLRHLGEVVHTFSHIKLTYQVYGLALEGQTPVTTVPPGARWLTQEEFHTAAVSTAMKKVFRVYQGQQPGTCMGSKRSQVSSPCSRKKPRMGQQVLDNFFRSHISTDAHSLNSAAQ

Variants of: B1
Assay: 8OG:A repair function score (normalized; synonymous = 0, nonsense = -1) (normalized log-likelihood score); higher = more repair activity (WT-like)
Conditions: with 8OG:A DNA repair reporter (GFP) in HEK-293 MUTYH KO cells
Description: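 Saturation mutagenesis (NNN codon scan) of the MUTYH cDNA (521-aa nuclear isoform NM_001048174.1 / NP_001041639), stably expressed under doxycycline induction in HEK-293 MUTYH knockout cells. Cells were co-transfected with an 8OG:A-bearing GFP repair reporter plus mCherry and sorted 72 h later into GFP+ and GFP− bins, three replicates per tile. The Rosace log2 enrichment (GFP+ vs GFP−) was converted per tile to a normalized function score with synonymous variants centered at 0 and nonsense variants (codons 1-471) at -1; low-abundance variants were removed.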

| Variant | 8OG:A repair function score |
| --- | --- |
| A115V | 0.00984 |
| V465T | -0.191 |
| V207P | -1.01 |
| V207R | -0.947 |
| V207L | -0.375 |
| T228Q | -0.217 |
| P247H | -0.982 |
| Q111G | -0.557 |
| Q111A | -0.258 |
| C489G | 0.00751 |
| F330E | -0.809 |
| M93V | 0.00114 |
| L95A | 0.00636 |
| L95T | -0.0603 |
| Q126S | 0.0362 |
| T130K | -0.0846 |
| N307C | -0.119 |
| N307Q | -0.00475 |
| L237K | -0.816 |
| R482K | 0.021 |
| R482N | -0.0127 |
| R482H | -0.0234 |
| E178I | -0.0162 |
| E178L | -0.106 |

| Variant | 8OG:A repair function score |
| --- | --- |
| A135G | -0.074 |
| W374Y | -0.274 |
| W374Q | -0.828 |
| E385H | -0.135 |
| R42G | 0.0112 |
| P316Q | 0.0822 |
| P316G | 0.00918 |
| D77L | -0.131 |
| D77M | -0.0782 |
| A354N | -0.255 |
| F200T | -0.739 |
| D502N | 0.011 |
| D502R | 0.0187 |
| M462I | -0.13 |
| S507D | -0.0424 |
| S507A | -0.0386 |
| P437S | -0.0348 |
| P267D | -1.1 |
| L423T | -0.513 |
| V438E | 0.281 |
| R266G | -0.111 |
| C269K | -1.17 |
| C269G | -1.26 |
| C269A | -1.29 |

| Variant | 8OG:A repair function score |
| --- | --- |
| E168H | -0.103 |
| E168K | -0.00268 |
| T476I | -0.074 |
| S490G | -0.0115 |
| Q181K | -0.0739 |
| Q181F | -0.0623 |
| Q181E | 0.0231 |
| V414D | -0.769 |
| V414S | -0.294 |
| G412W | -0.986 |
| D512E | -0.0165 |
| E140W | -0.595 |
| E140L | -0.0779 |
| G356T | -0.197 |
| Q470K | 0.0155 |
| Q470T | -0.0526 |
| Q470D | -0.0832 |
| A194F | -1.16 |
| Q43H | 0.0802 |
| S318A | 0.0892 |
| R156Y | -0.337 |
| S231L | -0.0707 |
| Q113H | -0.405 |
| A431N | 0.00246 |

| Variant | 8OG:A repair function score |
| --- | --- |
| A431T | -0.0229 |
| D96C | -0.291 |
| D82E | -0.035 |
| R97F | -0.0465 |
| Q435I | 0.00734 |
| A461E | -0.842 |
| L361C | -0.101 |
| M255T | -0.883 |
| L290G | -0.0171 |
| P365Y | -0.212 |
| W321I | -0.25 |
| S276M | -0.0454 |
| S294I | 0.00404 |
| L234N | -0.855 |
| L234D | -1.03 |
| L234V | -0.29 |
| L234Q | -0.724 |
| E106V | -1.33 |
| T308D | -0.0467 |
| W146Y | -0.532 |
| W146F | -0.152 |
| W146A | -0.448 |
| Q233E | -0.306 |
| S384A | 0.0362 |

| Variant | 8OG:A repair function score |
| --- | --- |
| P273Y | -0.661 |
| L396P | -0.766 |
| L396V | -0.026 |
| S483K | -0.04 |
| L373G | -0.502 |
| T440E | 0.0718 |
| A305Q | -0.0168 |
| E256I | -0.901 |
| E64S | -0.158 |
| M125P | -1.2 |
| M125Q | -0.33 |
| S487M | 0.0121 |
| T191P | -0.924 |
| A63P | -0.0204 |
| G222V | -0.622 |
| G222Y | -0.461 |
| R506P | 0.0202 |
| P404H | 0.138 |
| L229E | -0.064 |
| Q521I | -0.0216 |
| E79C | -0.0344 |
| Q388D | 0.0946 |
| E275N | -0.00161 |
| E275H | 0.015 |

| Variant | 8OG:A repair function score |
| --- | --- |
| E275D | -0.113 |
| E275V | 0.0153 |
| T460M | -0.152 |
| T460H | -0.38 |
| L369E | -0.807 |
| L369I | -0.0978 |
| A223T | -0.118 |
| A223R | 0.032 |
| E167S | -0.0659 |
| S518F | -0.0829 |
| A259T | -0.329 |
| Y120D | -0.428 |
| L49P | 0.109 |
| L49F | -0.0825 |
| D208H | -1.01 |
| V166S | -0.0616 |
| L370A | -0.326 |
| L370N | -0.379 |
| T116C | -0.0685 |
| R157L | -0.141 |
| R157Y | -0.068 |
| C311L | -0.479 |
| S197C | -0.73 |
| S197G | -0.747 |

| Variant | 8OG:A repair function score |
| --- | --- |
| N251L | -0.938 |
| I198C | -0.474 |
| G353I | -0.129 |
| R175V | -0.148 |
| Q363V | -0.293 |
| G148T | -0.549 |
| R219P | -1.02 |
| R219M | -0.571 |
| G293E | -0.0308 |
| G293R | -0.00692 |
| G293P | -0.0254 |
| P185T | -0.242 |
| S54T | -0.0217 |
| Y152P | -1.28 |
| Y152G | -0.713 |
| G209K | -0.788 |
| H514K | 0.0132 |
| A253R | -1.01 |
| A199L | -1.01 |
| A199H | -0.874 |
| Y100A | -1.95 |
| G170K | -0.0295 |
| P488C | -0.0233 |
